The values that follow come from IntAct's records for PubMed 15637807.

B1: Caspase recruitment domain-containing protein 19 (Homo sapiens), Q96LW7 (parent)
chain: MTDQTYCDRLVQDTPFLTGHGRLSEQQVDRIILQLNRYYPQILTNKEAEKFRNPKASLRVRLCDLLSHLQRSGERDCQEFYRALYIHAQPLHSRLPSRHALRKFHITNHACLVLARGGHPSLPLMAWMSSMTTQVCCSPGLASPLASAPPQRPPSGPEGRVWQAQAVQMLVSVSHFLPLPPSLSHGSFHTAWGILYVHSCPSFSNLIPRGSLHVCVDSNLVPTAAWRS
partner: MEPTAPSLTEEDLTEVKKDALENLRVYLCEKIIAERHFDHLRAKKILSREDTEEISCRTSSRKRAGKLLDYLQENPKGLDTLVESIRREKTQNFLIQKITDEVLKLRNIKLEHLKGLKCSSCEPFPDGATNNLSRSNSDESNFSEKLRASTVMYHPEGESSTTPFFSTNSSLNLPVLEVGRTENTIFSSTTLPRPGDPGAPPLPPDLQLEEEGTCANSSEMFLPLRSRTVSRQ

This assay covers variants of B1. The note with it: with bcl10_human BCL10, O95999.
As to L65A, the “effect of a mutation on the interaction” value was “disrupting interaction”.
